Drawing on US20250171542A1, this text covers IC50 (nM), Promega PD-1/PD-L1 blockade reporter assay, another assay for two substances.

The target in this assay is human PD-L1 expressed on cell surface (human) (UniProt Q9NZQ7). The assay is described as follows: cell-based or functional assay.
Chain of human PD-L1 expressed on cell surface (human) (Q9NZQ7 19-290 limits assumed): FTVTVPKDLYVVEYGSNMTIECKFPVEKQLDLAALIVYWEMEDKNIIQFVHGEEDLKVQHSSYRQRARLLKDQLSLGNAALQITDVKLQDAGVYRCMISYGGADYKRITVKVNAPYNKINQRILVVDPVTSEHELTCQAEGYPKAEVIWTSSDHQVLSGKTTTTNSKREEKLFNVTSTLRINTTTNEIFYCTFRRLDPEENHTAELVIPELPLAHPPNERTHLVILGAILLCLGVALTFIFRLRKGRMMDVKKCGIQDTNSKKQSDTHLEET

“SGN-PD-L1 analogue anti-PD-L1 antibody (BioIntron)” displayed an IC50 (nM), Promega PD-1/PD-L1 blockade reporter assay, another assay of 0.68 nM.

As to “Atezolizumab analogue (BioIntron) (antibody)”, the IC50 (nM), Promega PD-1/PD-L1 blockade reporter assay, another assay came to 0.33 nM.
